Our source for the Km and Vmax values is PMC6050342, “Molecular identification and characterization of rhodaneses from the insect herbivore Pieris rapae” (Scientific Reports, 2018).

Substrate in the data set: O=S(O)(O)=S
Kind of data set: purified protein. It counts as biochemical, Pieris rapae. The settings on record: 50 mM KCN, Tris-HCl pH 8.5, 30 °C.

B1: PrTST2 (Pieris rapae) (protein)
chain: MGNSNSNSTMVDPVRFVSYEDMLKVIHEPEKVIIDVRNPDEIESTGKIPSSINIPLNTVSDTLASMPDDEFLKQYQRPKPSASDELIFYCKSGRRSQEALDKALKLGFSNSKSYLGSWEDWSSKQK
notes: active-site Cys-90
Consider B1, for which the Km came to 840 ± 270 µM and the Vmax was found to be 14.2 µmol/min/mg.
